Source: patent US20230399361A1, “MACROCYCLIC PEPTIDES” (UNIVERSITY OF NOTRE DAME DU LAC, priority 2022, published 2023)
*1 amine or outer side, *2 acyl side, *3 side chain or, on linkers, in order; H or OH if unused. Where a SMILES comes first, the peptide text is derived from it. Primed or numbered codes have the meaning given here. [ ]: non-standard residue; d: D form. aTyr = Tyr with an NH2 on the backbone amide nitrogen (N-amino residue), NN([C@@H](Cc1ccc(O[*:3])cc1)C(=O)[*:2])[*:1]; aIle″ = Ile with an NH2 on the backbone amide nitrogen (N-amino residue), CC[C@H](C)[C@@H](C(=O)[*:2])N(N)[*:1]; aVal″ = Val with an NH2 on the backbone amide nitrogen (N-amino residue), CC(C)[C@@H](C(=O)[*:2])N(N)[*:1]; N(NH2)Lys = NCCCC[C@H](NN)C(=O)O

How the values were obtained:
[1] = Human serum stability assay; conditions: after 24 h, 37° C., HPLC
Experimental: Human Serum Stability Assay. The stability of NAPs in 25% human serum (MilliporeSigma) was assessed by HPLC. The reaction was started by adding NAPs at a final concentration of 500 μM in pre-warmed serum. The mixture was incubated at 37° C. for 24 h. A 100 μL aliquot of the reaction mixture was taken out at 0, 1, 4, and 24 h and was mixed with an equal volume of 20% trichloroacetic acid and incubated at 4° C. for 15 min to precipitate serum proteins. After centrifugation at 12,000 rpm for 10 min, the supernatant was collected and mixed with an internal standard (1 mg/mL Cbz-Tyr-OH dissolved in MeCN) and stored at −20° C. Samples were then analyzed by LC-MS, and the percentage of peptide remaining was calculated by integrating peaks.

[2] = target: T1, AcPHF6 (Homo sapiens, UniProt P10636); conditions: Chem. Eur. J. 2017, 23, 9618; cited from earlier work
T1 construct: AcPHF6; Ac-Val-Gln-Ile-Val-Tyr-Lys-NH2; 790.4833

[3] = target: T2, tauP301L (Homo sapiens, UniProt P10636, P618L); assay: ThT fluorescence aggregation assay of recombinant tauP301L; assay type: biochemical; conditions: 20 μM NAP (2-fold molar excess), 10 μM tauP301L, heparin, 48 h
T2 construct: we expressed and purified full-length tau featuring a P301L mutation; His6 (N); made in house; host or cells: E. coli BL21 (DE3)
T2 sequence (P10636 1-383 isoform P10636-6 P243L): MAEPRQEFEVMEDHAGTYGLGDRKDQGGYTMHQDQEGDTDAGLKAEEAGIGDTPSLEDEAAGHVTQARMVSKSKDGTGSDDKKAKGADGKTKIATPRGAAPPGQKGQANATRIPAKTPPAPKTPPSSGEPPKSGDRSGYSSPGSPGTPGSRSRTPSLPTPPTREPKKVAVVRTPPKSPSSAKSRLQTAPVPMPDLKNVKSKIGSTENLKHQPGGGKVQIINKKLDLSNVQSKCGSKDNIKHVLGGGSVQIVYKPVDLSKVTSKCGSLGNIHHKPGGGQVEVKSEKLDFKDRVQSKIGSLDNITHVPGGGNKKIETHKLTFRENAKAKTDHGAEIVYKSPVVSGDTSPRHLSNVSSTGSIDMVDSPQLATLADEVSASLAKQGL
Excerpt: (§1) NAP Tau Mimics Inhibit Tau Fibrilization In Vitro. We chose thioflavin T (ThT), an amyloid specific fluorescent dye that binds to β-sheet assemblies, to first evaluate the effect of NAPs on recombinant tau aggregation. For these studies, we expressed and purified full-length tau featuring a P301L mutation frequently observed in patients with frontotemporal dementia and Parkinsonism linked to chromosome 17 (FTDP-17). This missense mutation leads to local structure destabilization around the amyloid-forming region resulting in faster aggregation. Recombinant tauP301L aggregated in the presence of equimolar heparin sulfate (t1/2=6.5±0.4 h) starting with a very short 0.5 h lag phase, followed by a 24 h exponential growth phase. […] Compounds 2 and 4 are mono- and diaminated hexapeptides derived from the R2 PHF6* aggregation-prone sequence, whereas compounds 5, 6, 12, and 13 are all derived from the R3 PHF6 sequence. Several other NAPs had no effect on endpoint ThT fluorescence or lacked consistent inhibition across repeated experiments. […] NaOAc buffer, as evidenced by intense ThT fluorescence after 48 h (FIG. 1B).
Inhibition of full-length tau aggregation by mxyl-NAPs in a ThT assay. […] TauP301L ([…]) aggregated upon incubation with heparin over the course of 2 days, leading to high ThT fluorescence. […] We also synthesized linear and scrambled controls corresponding to each of the NAP inhibitors.
ThT Fluorescence Aggregation Assay. Recombinant tauP301L (10 μM final concentration) and NAP inhibitors (20 μM final concentration) were mixed in an aggregation buffer (100 mM sodium acetate, 10 μM ThT, 10 μM heparin, 2 mM DTT, and 0.5% DMSO, pH: 7.4) in a 96-well clear bottom black plate with a final reaction volume of 200 μL. The plate was then sealed with a clear sealing film and allowed to incubate at 37° C. with continuous shaking in a Biotek Synergy H1 microplate reader. An automated method was used to carry out ThT fluorescence measurements at an excitation wavelength of 444 nm and an emission wavelength of 485 nm at an interval of every 5 min for 48 h. Experiments were carried out in technical replicates on at least 2 different days. Every experiment included control wells that lacked tauP301L, heparin, or NAPs. The average signal from control wells lacking tau was used to subtract the background fluorescence, and the average of the first and last 10 data points of tau+heparin (no inhibitor) wells, after blank subtraction, was used to normalize the data. All data plots were generated with SigmaPlot.

[4] = Self-aggregation of peptides alone by ThT fluorescence; assay type: physicochemical; conditions: incubated alone in aq. NaOAc buffer, 48 h
Excerpt: as §1
Design and synthesis of aggregation-resistant backbone-aminated derivatives of mxyl-AD. The data above support the hypothesis that mxyl-AD mimetic macrocycle can engage in native-like hydrophobic cross-b interactions as well as edge-to-edge H-bonds along the fibril axis. We next sought to employ mxyl-AD as a template for the design of tau seeding inhibitors that could potentially cap fibril growth and block propagation. This required us to incorporate a chemical modification onto mxyl-AD that would preclude its ability to self-assemble without disrupting its capacity to adopt the conformation required to bind tau. We therefore designed two backbone N-amino peptide (NAP) derivatives of our tau mimic, mxyl-NAP1 and mxyl-NAP2 (Scheme 1). Each of these analogues features a backbone amide substitution that precludes canonical b-sheet H-bonding along one edge of the macrocycle, while leaving the other edge intact to engage the tau protein. […] Both mxyl-NAP1 and mxyl-NAP2, which feature a single backbone N-amino group within the amyloidogenic PHF6 module, were prepared on solid support starting from Fmoc-protected N-amino dipeptides.

[5] = target: T2, tauP301L; assay: Transmission electron microscopy of heparin-induced tauP301L fibrils; assay type: biochemical; conditions: 10 μM tauP301L + heparin, 20 μM NAP (2-fold molar excess), 96 h
Experimental: This is consistent with previous reports showing that the endpoint ThT fluorescence and fibrilization lag time for full-length tau are particularly resistant to perturbation by inhibitors. […] To confirm the effect of NAPs on the growth of mature tau fibrils, we used transmission electron microscopy (TEM) to visualize the morphology and maturity of fibrillar species. Heparin-induced tauP301L fibrils were allowed to grow over 96 h in the presence or absence of inhibitors. Untreated tauP301L afforded large, helical, and amyloid-like filamentous fibrils.
Inhibition of full-length tau fibrilization by mxyl-NAPs in TEM. To confirm the results from ThT assays, we used TEM to visualize tauP301L fibrils in the absence or presence of synthesized NAPs. As expected, heparin-induced tauP301L formed dense networks of mature fibrils (FIG. 8).
Transmission Electron Microscopy. For analyzing fibrils by TEM, aggregation was carried out under conditions similar to the assay performed above but with ThT excluded and a final reaction volume of 100 μL. Samples were incubated in a microcentrifuge tube for 4 days at 37° C. with a mixing speed of 100 rpm. A 10 μL aliquot of the sample was then applied to 400-meshed formvar-/carbon-coated copper grids and negative-stained with 2% uranyl acetate. Micrographs were obtained on a JEOL 2011 transmission electron microscope at 200 kV.

[6] = target: Human tauP301L (0N4R) with an N-terminal His6 tag (human), P10636; assay: cell-based or functional assay
Chain of Human tauP301L (0N4R) with an N-terminal His6 tag (human), P10636 (P10636 other isoform, or with tags, fused parts or gaps): as the sequence (P10636 1-383 isoform P10636-6 P243L) above, with L243P counted along it

Molecule	endpoint ThT fluorescence of tauP301L [3]	tauP301L fibril morphology by TEM [5]	self-aggregation, ThT fluorescence of peptide alone [4]	further results
CC[C@H](C)[C@H](NC(=O)[C@@H](N)CC(C)C)C(=O)N[C@H](C(=O)N[C@@H](CCCNC(=N)N)C(=O)N[C@@H](CC(C)C)C(=O)N[C@@H](CCC(=O)O)C(=O)N[C@@H](CC(N)=O)C(=O)N[C@H](C(N)=O)[C@@H](C)O)[C@@H](C)O [H-LITRLENT-NH2] (H-LITRLENT-NH2)				intact peptide in 25% human serum [1]: rapidly degraded
Ac-VPIVYK-NH2 [proline-containing analogue of PHF6 from the literature (Segal and co-workers)]				aggregation of AcPHF6 in vitro [2]: inhibits the aggregation
Ac-Val-Gln-aIle-Val-Tyr-Lys-NH2 (Ac-VQ[aIle″]VYK-NH2) [Compound 6]	significantly reduce	short, immature rod-like fibrils	no such fluorescence	
Ac-VQ[aIle″]V[aTyr]K-NH2 [Ac-Val-Gln-aIle-Val-aTyr-Lys-NH2 (12)]				fibril capping IC50 in cells (seeding of tau-RD(LM)-YFP in HEK293 biosensor cells by pre-formed tauP301L fibrils) [6]: 5 µM
Ac-VQI[aVal″]Y[N(NH2)Lys]-NH2 [Ac-Val-Gln-Ile-aVal-Tyr-aLys-NH2 (13)]				fibril capping IC50 in cells (seeding of tau-RD(LM)-YFP in HEK293 biosensor cells by pre-formed tauP301L fibrils) [6]: 5 µM

Continued, in another order:

endpoint ThT fluorescence of tauP301L [3]	tauP301L fibril morphology by TEM [5]	Molecule	self-aggregation, ThT fluorescence of peptide alone [4]	further results
significantly reduce	short, immature rod-like fibrils	Ac-Val-Gln-aIle-Ile-Asn-Lys-NH2 (Ac-VQ[aIle″]INK-NH2) [Compound 2]	no such fluorescence	
significantly reduce	short, immature rod-like fibrils	Ac-aVal-Gln-Ile-Val-Tyr-Lys-NH2 (Ac-[aVal″]QIVYK-NH2) [Compound 5]	no such fluorescence	
